Substitutions are numbered along the chain they refer to. Numbers in names are those of the source.
What was measured:
PARP-16 = biological target: T1, PARP-16 (Homo sapiens, UniProt Q8N5Y8); experiment: 32P-NAD+ incorporation assay with recombinant GST-PARP-16 (self-modification); format: biochemical; settings: of wild-type GST-PARP-16; purified from E. coli
T1 construct: Asterisk=full-length proteins; made in house; host or cells: E. coli BL21 RIPL
T1 sequence (Q8N5Y8 1-322): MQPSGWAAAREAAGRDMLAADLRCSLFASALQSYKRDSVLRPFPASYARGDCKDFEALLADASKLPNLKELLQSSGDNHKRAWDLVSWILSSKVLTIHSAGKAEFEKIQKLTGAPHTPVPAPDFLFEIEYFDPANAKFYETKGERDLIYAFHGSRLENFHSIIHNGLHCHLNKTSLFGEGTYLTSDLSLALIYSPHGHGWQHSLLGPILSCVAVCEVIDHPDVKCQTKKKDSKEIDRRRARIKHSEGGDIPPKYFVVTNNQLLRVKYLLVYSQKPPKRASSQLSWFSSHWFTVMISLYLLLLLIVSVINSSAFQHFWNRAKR
Excerpt: Human PARP-16 (ADP-ribosyl)ates itself and contains histidine and tyrosine residues at amino acid 152 and 182 within its catalytic domain, residues thought to be critical for enzymatic activity (FIG. 1B) (Kleine et al., Mol. Cell 32: 57-69, 2008). To determine if these residues are required for enzymatic activity, GST-PARP-16 and GST-PARP-16^H152Q Y182A were expressed and purified in E. coli, and ^32P-NAD^+ incorporation assays performed.
(§1) For ER microsome-based assays including NAD^+ incorporation and immunoprecipitation, ER microsomes were fractionated from HeLa cells via isopycnic flotation method as described in Stephens et al., Methods Mol Biol. 419: 197-214, 2008, and incubated with 100 μM β-NAD^+ (MP Biomedicals) and 2.5 μCi of ^32P-NAD^+ (Perkin Elmer) in a PARP reaction buffer (50 mM HEPES pH 7.4, 150 mM NaCl, 1 mM MgCl2, 10 mM EGTA, 1 mM DTT, 0.1 mM Na3VO4, 50 mM NaF, 5 mM β-glycerophosphate, 1 μM ADP-HPD, and protease inhibitor cocktail) at 25° C. for 30 min. The ratio between unlabeled and labeled NAD^+ was kept constant upon titration of NAD^+ concentration. The ^32P-labeled ER microsomes were then lysed by addition of Triton X-100 at 1%. Proteins were immunoprecipitated, eluted in a 1× Laemmli sample buffer by boiling at 65° C. for 10 min, and then analyzed using autoradiogram and immunoblotting. […]

PERK = experiment: NAD+ incorporation assay with ER microsome-purified PERK and recombinant GST-PARP-16; format: biochemical, human; settings: PERK purified from ER microsomes of unstressed PARP-16 knockdown cells
Excerpt: We examined NAD^+ incorporation onto GFP-PERK or GFP-IRE1α via EMAA in cells transfected with control or PARP-16 siRNA, treated with or without ER stress inducing drugs. Low level (ADP-ribosyl)ation of GFP-PERK and GFP-IRE1α was detected in control knock-down cells in the absence of drug (FIGS. 6C and 6D), likely due to the previously described UPR induction upon PERK or IRE1α expression (Bertolotti et al., Nat. Cell Biol. 2: 326-332, 2000; Kimata et al., Curr. Opin. Cell Biol. 23: 135-142, 2011).
as §1

GFP-PERK = experiment: PERK kinase assay after (ADP-ribosyl)ation of ER microsomes by GST-PARP-16; format: biochemical, human; settings: versus GST-PARP-16 samples; depending on NAD concentration
Description: We examined PERK and IRE1α kinase activity in response to (ADP-ribosyl)ation by PARP-16 via self-phosphorylation assays. ER microsomes purified from GFP-PERK- or GFP-IRE1α-expressing cells were washed with 1M NaCl to remove bound PARP-16, returned to physiological salt buffer, split into duplicate reactions, and incubated with unlabeled NAD^+ plus either GST-PARP-16 or GST-PARP-16^H152Q Y182A, or ^32P-NAD^+ plus either recombinant protein. (ADP-ribosyl)ated GFP-PERK or GFP-IRE1α were extracted from the microsomes and purified under 1 M NaCl conditions to remove added recombinant PARP-16 proteins. Reactions containing unlabeled NAD^+ were incubated with ^32P-ATP, and reactions containing ^32P-NAD^+ were incubated with unlabeled ATP. […] Phosphorylation by GFP-IRE1α at the molecular weight of GST-PARP-16 and GST-PARP16^H152Q Y182A was also detected (FIG. 7E).
PERK and IRE1α kinase assays were performed as described herein. […] Proteins were immunoprecipitated, eluted in 1× Laemmli sample buffer by heating at 65° C. for 10 min, and then analyzed using autoradiogram and immunoblotting.

B1: GST-PARP-16^H152Q Y182A: recombinant GST-PARP-16 catalytically inactive mutant, His152 and Tyr182 mutated, purified in E. coli (protein, UniProt Q8N5Y8 1-322, looked up, variant H152Q Y182A)
Protein …: T1 sequence (Q8N5Y8 1-322) with H152Q, Y182A
modifications: GST fusion
32P-NAD+ incorporation activity relative to wild-type (PARP-16): ~6%
ADP-ribosylation of PERK (PERK): not
reduction of phosphorylation by PERK at the molecular weight of GST-PARP-16 (GFP-PERK): 5-10 fold

Source: patent US20140348857A1, “METHODS OF DIAGNOSIS AND TREATMENT OF ENDOPLASMIC RETICULUM (ER) STRESS-RELATED CONDITIONS” (MASSACHUSETTS INSTITUTE OF TECHNOLOGY, priority 2011, published 2014)
